Assay results from FireProtDB (doi:10.1038/srep15545).

Conditions: Escherichia coli (strain K12); pH 9; Thermal; DSC; Glycine 50mM; reversible: yes; whole UniProt chain shown

B1: Divalent-cation tolerance protein CutA wild type, P69488 (protein)
chain: MLDEKSSNTASVVVLCTAPDEATAQDLAAKVLAEKLAACATLIPGATSLYYWEGKLEQEYEVQMILKTTVSHQQALLECLKSHHPYQTPELLVLPVTHGDTDYLSWLNASLR
In the case of B1, the Tm is reported as 85.6 °C and the “unfolding enthalpy (calorimetric)” value is reported as 870 kJ/mol.
